# From patent US11111484B2, “Streptococcus bacteriophage lysins for detection and treatment of gram positive bacteria” (priority 2011, dated 2021)
# “Also recorded” adds a separate entry of the source.
# B1: ΔPlySs1: truncated PlySs1 lysin, SEQ ID NO:2, N-terminal 254 amino acids: only N-terminal enzymatic and central binding domains (protein, listed as Streptococcus suis)
# chain: MTINLETSIRWMSDRVGKVSYSMDYRNGPNSYDCSSAVYYALMAGGAISAGWAVNTEYMHDWLIRNGYVLVAENKPFNAQRHDVCILGKRGYSSGAGGHVVIFVDNVNVIHCNYARNGISIDNYNQVHRGMYYYLYRPANQPSISNKSLDQLVKETLAGVHGNGDTRKASLGSQYEAVMAVINGKASASEKSDEELAREVLAGKHGAGEDRKRSLGPRYEPVQAKVNELLKAKEKPSETAKNEPQTVQFKEDGDL
# B2: PlySs2: Streptococcus suis prophage lysin, SEQ ID NO:3; N-terminal CHAP domain and C-terminal SH3-type 5 domain (protein, listed as Streptococcus suis)
# chain: MTTVNEALNNVRAQVGSGVSVGNGECYALASWYERMISPDATVGLGAGVGWVSGAIGDTISAKNIGSSYNWQANGWTVSTSGPFKAGQIVTLGATPGNPYGHVVIVEAVDGDRLTILEQNYGGKRYPVRNYYSAASYRQQVVHYITPPGTVAQSAPNLAGSRSYRETGTMTVTVDALNVRRAPNTSGEIVAVYKRGESFDYDTVIIDVNGYVWVSYIGGSGKRNYVATGATKDGKRFGNAWGTFK
# How the values were obtained:
# S. suis ST7 = experiment: ΔPlySs1 OD600 lysis, 1 hr, optimal buffering conditions; type: cell-based, Streptococcus suis
# Protocol: (§1) Truncated PlySs1(ΔPlySs1) lysin activity was determined against different cell types. Given the above experiments, the following optimal buffering conditions were employed for all further in vitro experiments with ΔPlySs1: 20 mM phosphate buffer, pH=7.8, 2 mM EDTA. A range of lysin concentrations, from 6.5-130 μg/ml, were introduced to live S. suis cells in this buffer. Three strains were considered particularly relevant: 7711, the serotype 7 strain that encodes PlySs1; S735, the serotype 2 reference strain; and 7997, a highly virulent serotype 9 strain. In terms of bacterial viability, only the highest PlySs1-concentration (130 μg/ml) led to a >90% decrease in CFUs for 7711, S735, and 7997 after 1 hr treatment (TABLE 2). The lysin was also tested against actively-dividing cells in broth culture (strain 7711) (FIG. 20).
# (§2) ΔPlySs1 was further tested against a panel of 19 other S. suis strains of diverse serotypes, as well as other species of Gram-positive bacteria. The same lysin concentrations were used as above. For each dosage, the observed lysis values after 1 hr are listed in TABLE 3 and TABLE 4, and the information is summarized graphically in FIG. 21.
# S. suis 8076 (ST9) = experiment: as above; type: cell-based, Streptococcus suis
# Protocol: as §1, §2
# S. suis ST3 = experiment: as above; type: cell-based, Streptococcus suis
# Protocol: as §1, §2
# L. monocytogenes HER1084 = experiment: as above; type: cell-based, Listeria monocytogenes
# S. pneumoniae R36 = experiment: as above; type: cell-based, Streptococcus pneumoniae
# S. uberis 27598 = experiment: as above; type: cell-based
# S. pyogenes strain 5005 = experiment: resistance assay, exposure to incrementally increasing concentrations; type: cell-based, Streptococcus pyogenes; details: S. pyogenes 5005; concentration doubled daily from 1/32 to 4× MIC over 8 days
# MRSA = MRSA mouse sepsis model; type: in vivo, FVB/NJ mice
# Protocol: PlySs2 lysin activity against S. aureus has been further evaluated in an MRSA mouse sepsis model. In the MRSA mouse sepsis model, susceptible mice (FVB/NJ mice, weight range 15-20 g) were injected with 500 μL of 5×10^5 (approx LD100) MRSA cells/mL in 5% hog gastric mucin in PBS intraperitoneally (IP). After 3 hours, all of the mice are bacteremic with MRSA in their organs (including spleen, liver, kidney, and heart/blood). To determine PlySs2 activity in this model, 500 μL PlySs2 at 2 mg/mL was injected IP 3 hours after injecting MRSA. […] Control mice were injected with 500 μL PBS. Survival was evaluated over ten days. The control mice die within 18-20 hours.
# [1] = system: S. pyogenes strain MGAS5005; experiment: murine septicemia model, S. pyogenes infection alone; type: in vivo, FVB/NJ mice; details: PlySs2 2 mg
# Protocol: The Rockefeller University's Institutional Animal Care and Use Committee approved all in vivo protocols. A systemic infection model described in Daniel, A. et al., was used to test for the in vivo efficacy of PlySs2 against multiple gram-positive bacteria. Briefly, 4-5 week old female FVB/NJ mice (weight range 15 to 20 g) were obtained from The Jackson Laboratory (Bar Harbor, Me.). After a period of acclimation, mice were injected intraperitoneally (IP) with 0.5 ml of mid log-phase (OD600 0.5) bacteria diluted with 5% hog gastric mucin (Sigma) in saline. Bacterial suspensions contained ˜5×10^5 CFU/ml of MW2, a PVL toxin-encoding MRSA strain, ˜1×10^7 of MGAS5005, an M1 serotype of Streptococcus pyogenes that is virulent in humans and mice (Musser), or a combination of both bacteria simultaneously at the above concentrations for the mix infection experiments. Actual bacterial inoculation titers were calculated by serial dilution and plating to Columbia blood agar plates for each experiment. Mice became bacteremic within one to three hours and contained MRSA and/or S. pyogenes in their organs (including spleen, liver, kidney, and heart/blood) ([50], and unpublished observations). […] The survival rate for each experimental group was monitored every 12 hours for the first 24 hours then every 24 hours up to 10 days post-infection. The data were statistically analyzed by Kaplan Meier Survival curves and a Logrank test performed for 95% confidence intervals using the Prism computer program (GraphPad Software; La Jolla, Calif.).
# To determine if the broad lytic activity of PlySs2 could provide in vivo protection from infection with gram-positive pathogens, either alone or as a mixed infection, FVB/NJ mice were intraperitoneally injected with ˜5×10^5 CFU of MRSA strain MW2, ˜1×10^7 of S. pyogenes strain MGAS5005 and/or both bacteria simultaneously at the concentrations above. […] Mice were then monitored for survival over ten days. […]
molecule,measurement,setting,value
B1,1-hour treated/untreated OD600-ratio,S. suis ST7; 6.5 μg/ml,0.65
same,1-hour treated/untreated OD600-ratio,S. suis ST7; 13 μg/ml,0.47
same,1-hour treated/untreated OD600-ratio,S. suis ST7; 30 μg/ml,0.34
same,1-hour treated/untreated OD600-ratio,S. suis ST7; 65 μg/ml,0.22
same,1-hour treated/untreated OD600-ratio,S. suis ST7; 130 μg/ml,0.11
same,1-hour treated/untreated OD600-ratio,S. suis 8076 (ST9); 6.5 μg/ml,0.52
same,1-hour treated/untreated OD600-ratio,S. suis 8076 (ST9); 13 μg/ml,0.40
same,1-hour treated/untreated OD600-ratio,S. suis 8076 (ST9); 30 μg/ml,0.21
same,1-hour treated/untreated OD600-ratio,S. suis 8076 (ST9); 65 μg/ml,0.14
same,1-hour treated/untreated OD600-ratio,S. suis 8076 (ST9); 130 μg/ml,0.04
same,1-hour treated/untreated OD600-ratio,S. suis ST3; 6.5 μg/ml,0.81
same,1-hour treated/untreated OD600-ratio,S. suis ST3; 13 μg/ml,0.71
same,1-hour treated/untreated OD600-ratio,S. suis ST3; 30 μg/ml,0.48
same,1-hour treated/untreated OD600-ratio,S. suis ST3; 65 μg/ml,0.32
same,1-hour treated/untreated OD600-ratio,S. suis ST3; 130 μg/ml,0.16
same,lysis value after 1 hr (treated/untreated OD600 ratio),L. monocytogenes HER1084; 6.5 μg/ml,0.63
same,lysis value after 1 hr (treated/untreated OD600 ratio),L. monocytogenes HER1084; 13 μg/ml,0.52
same,lysis value after 1 hr (treated/untreated OD600 ratio),L. monocytogenes HER1084; 30 μg/ml,0.26
same,lysis value after 1 hr (treated/untreated OD600 ratio),L. monocytogenes HER1084; 65 μg/ml,0.14
same,lysis value after 1 hr (treated/untreated OD600 ratio),L. monocytogenes HER1084; 130 μg/ml,0.04
same,lysis value after 1 hr (treated/untreated OD600 ratio),S. pneumoniae R36; 6.5 μg/ml,0.25
same,lysis value after 1 hr (treated/untreated OD600 ratio),S. pneumoniae R36; 13 μg/ml,0.22
same,lysis value after 1 hr (treated/untreated OD600 ratio),S. pneumoniae R36; 30 μg/ml,0.14
same,lysis value after 1 hr (treated/untreated OD600 ratio),S. pneumoniae R36; 65 μg/ml,0.16
same,lysis value after 1 hr (treated/untreated OD600 ratio),S. pneumoniae R36; 130 μg/ml,0.12
same,lysis value after 1 hr (treated/untreated OD600 ratio),S. uberis 27598; 6.5 μg/ml,0.42
same,lysis value after 1 hr (treated/untreated OD600 ratio),S. uberis 27598; 13 μg/ml,0.23
same,lysis value after 1 hr (treated/untreated OD600 ratio),S. uberis 27598; 30 μg/ml,0.16
same,lysis value after 1 hr (treated/untreated OD600 ratio),S. uberis 27598; 65 μg/ml,0.14
same,lysis value after 1 hr (treated/untreated OD600 ratio),S. uberis 27598; 130 μg/ml,0.12
B2,development of resistance,S. pyogenes strain 5005,"neither MRSA nor S. pyogenes established resistance; also recorded: None of MRSA strain MW2, MSSA strain 8325, nor S. pyogenes strain 5005 developed resistance"
same,survival evaluated over ten days,MRSA; 500 μL PlySs2 at 2 mg/mL IP 3 hours after MRSA,remarkable survival
same,mice cleared of bacteremia (survival over 10 days),"MRSA; MRSA bacteremia, FIG. 24",95%
same,mice died at day three (dead/total),[1],1/16
same,survival over 10 days,[1]; PlyC 1 mg,94%
same,survival over 10 days (mice surviving/total),[1]; PlyC 1 mg,15/16
